Assay: protease stability score; higher = more stable; yeast display proteolysis, trypsin and chymotrypsin;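 note: log10 excess protease needed over predicted unfolded state with 0 meaning unfolded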

First: DEERVERLARTAFKAAVNGDEDKLRKMLKPDVKYKYIDEEREGEDVAKFVVKLMKKIGAEVRLKRLEVRGDTVKADFDYKQGDKTVRTKAEVKYKGDKVDEARVELTDEVKKVLTRG
Second: DEERVHQAVRIIKHNDPDKLRKLADPNAKFQVGDREIHGMEEYADIVAQIMEKADKITFTDIQVHNGRLTIEVVINVNGRNIQFQIFLEFHNGKLKHAHIQATSEEVQRQLNSLMG
The protease stability score of the first is lower: 0.125 for the first, 0.674 for the second.

Going from “DEERVKDLVKKIFKDIRNGDEERVRKKGKPDVKYEYADKTFEGEDAVRFIVEILKKVGAEDKTQNETVHGDKAQANFQYDKGDQTAQTTAQVEYKGDKVDKMRVKISEEVKKVVEQG” to “DEERVKQLAEKAFKAIQNNDQEKLEKMGKPNVQYEYVDKKYEGPEVVKVVIKVVQKIGAKLETQEQEVKGDTARATFQYKNGDKTMQTTAEVRYKGDKMEEFRMELSDEVKKVVHQG”, the protease stability score falls from -0.116 to -0.207.

First: DEERVKQLAEKVFKYVIKGDKDEVRKQGKPDVKYKYIDKEYEGPDALEKAVKLVKRLGMKAETKELKVKGNTVRAKFEYRKGDQTMKTEVEVHYEGDVVKEAKVKISDEVKKFVHQG
Second: DEERVKQVQKKAFEAVMKGNDDEMRKIGKPNVRYEYIDEKNEGQEAVDVVIQLVKKVGAEAKVRRTEVKGDTVRAIFVYNDGDQTVQTKVEVKYEGDKVKEARVELTDEVQKVLHKG
The protease stability score of the first is higher: 0.309 for the first, -0.027 for the second.

Going from “DEERVNDIAHKIAQNLRTNDEEQLVRMMDENAKVTVGEHRIDGREQIRTMWHKIKQHVDHVEVKHVEARGDRIRIIIVLNHNGRQRTIVMYVSIHNGHIKVLKIESQ” to “DEERVQQMLEQAFKAIQNGNEEQMQKLGKPNVEYKYVDHEYEGPDAARVMVQLVKRVGAEVKQQKVEVKGNTATAVFQYHDGDQTVETTAEVEYEGDKMKKARVELTDEVKKVVHKG”, the protease stability score falls from 1.51 to -0.117.

First: DEERVRKVVEKLVDAVTRGDKDDIKKMLKKHVEFKLVDQEYKGVDQAVKVVKELHDYGMEVHVKEVRVKGDTAHATTVWKKGNTEAHVKVEYHVRDDKVEKVKIQWTEEAQKALKHG
Second: DEERVRQIADKMFKAIISGNSKDVQQVVKPNIQYEYGDEKYQGPKVVDQLVKVVKKIGAEVREREKTVHGDTMTAVFQYHKGDTTVQTEAEVKYEGDKAKRLRVKLSEEAQKVIKQG
The protease stability score of the first is higher: 0.283 for the first, -0.114 for the second.

Compared with “DEERYKQLMEKAFKMIKQGNEEEARKLLKPDVEYHYADKTFRGEEAAQFIVKVVQKLGAEDHNQRQEVNGDTMKADFRYTQGDQTVQTKAEVIYKGDKATEARVEMSDEVKKVLDQG”, “DEERYKRLFEKVFKVVQNGNKDELKKLLAPNVEYNYVDKTYEGEEAAKAVVQLVKKVGAKAKQQKVEVKGDTATAHFQYENGDQRVETQAELHYEGDKVKKVQVKLTDEVKKVVHQG” is higher in protease stability score: -0.052 for the first, 0.356 for the second.

First: DEESDKKFLEKIRKLFEDGDPDQFRKMFPPDATAVIGDKSVHGNQVEQAVNTFEKNRADHVRIDSFEVSNGRVDIDVVVNHNGEERRIKIVFIARNGRLEHMRFVST
Second: DEESKKQIDNWLKAVQQGDPDQLVKNVDKDVTVEYGDKSIHGRESLMKTLEDKKKQWRLEFKSVDVDVHGDKARLDVDVVLQINGQPFRHTRTIHVHLHNGRVKHMRFRFDEQQQRDMDR
The protease stability score of the first is lower: 0.215 for the first, 1.12 for the second.

Compared with “DEESLAKEFIKHVNDNADTGNPDDMAELFDPNARIEVGDKKYDGHKDITKLNEELNREADHIKYTINSVKRDGDFVRLDIEVRMDVNGKDVNHRYRANVAVTNGRLVVRSLTSS”, “DEESLDHLRKVLEKNDPDQLTELMDPDATAVIGNTEVHGREKVVTIMRRIYERADSIHIDRFSHQGDRLVADMQVNINGKKMRYEYVIRVHNGRIKYVKFHVTSEDVERDLTRAVS” is higher in protease stability score: 0.891 for the first, 1.67 for the second.

Compared with “DEESLRKFAKRVFRALQTGNPEDIHRLFDKDAHFVVGDKEVHGREQAIKFLSHIRRRADRISLKRMSVRGDKVSIDLQMTVDGHRTRFIVYIQVHNGRARRLKIEEN”, “DEESMHRMVTDLMHIIDSGNPDEAVKLADPNVQVTYGDRKYHGQDAVRDYIRELKKRVDTVNLKRVELSGEKATATAVFNVNGNRVDVEMTVTAQNGKIQSIDASVRDPDQKRKEKK” is lower in protease stability score: 1.57 for the first, 0.8 for the second.

First: DEESNHDVARKLMRALETGDPDKLRELADKHARITVGEKTIHGREDASRFAKELRDRIDHATVKHMDVDGNKVVINMTVRVNGRDLEVFVTAIVTNGRIKHIRFQYTDEDKNKEVEG
Second: DEESQARKFIKQYHDVLETGDENEARRLADENVKVHVGEFHYRGSDQYAHAVKRLRNKVDHIHMTLTEISVSNGEVNVVLKVVLNYNGTNDSFKMTMRADRVNGTLVLVEVKNG
The protease stability score of the first is higher: 1.18 for the first, 0.389 for the second.

First: DEESQKQMMKEMSDVWKHNDPDEAQKLADKDVKIRYGDREYHGREDFVSAMREFSKQADSITVKHMTVQGDKIVLDIIIQYDGQHREIVVIVHVHNGRIQELQIQDG
Second: DEESRAQSFMSKFNDNLRRGDPEKLKTYMDPNVKVQVGEKRLNGREQAARFWVEIARHVDHISVEFKSLKVTGDKIKAKAIVVLDVNGQKRRQDVVLYAQIQGDTIRLKKVDAP
The protease stability score of the first is lower: 0.637 for the first, 1.07 for the second.

Going from “DEESREQQVHHMMEAIKTGDEDRARTLMDKDASLQVGDKVFQGRKEAAKAVSEIVRRVDRFRVDSVTVSGNQVDAKVQFEVNGRNMQATIRIQMHNGRIQHLVIEFRDPNQYREVKK” to “DEESRRKQAQEFNENLEQGNFEELMKLLDPNAHIIIGEKEVKGREDIRKQQEEDQRRIDHVQIQSVTAHGDKIRALIRFTVNGQQTEVHVVLSFHNGRVKEMKIHTK”, the protease stability score falls from 1.05 to -0.324.

Going from “DEESVQTFAQQRRQGNFEELIKMMDPNVEMKVGDKTWTGREQVQTALEHLKERVDRIQIDHMDVKGNHVDIDYVLNFNGRNVKATQKIEMKNGSAKRIQIDATNEENEKELKKAFS” to “DEETAEQVMRELNRLLKNGNPDEMMTMMDKDARIEVGDKTYHGRDDIRRQNKEDRRRVDRFEVTSVDVRGDKADIDARFQFNGKTKRYQLFAKFHNGRVKHLEIEDK”, the protease stability score rises from -0.163 to 0.034.

Going from “DEETAQKIVEKLATGDEEQKREQMDKDVTVVIGDKELRGRETIVNQLRKIRKQVDHLEVKTYSAHNGRAEIVMRMQVNGRTMEYSIRVQVHNGRIQHIKFRVRNHEVQELLDRLLS” to “DEETDAKKAKDDMQHVANTNNPKDRETLLDENAEIVVGDEKYQGRHDVQKLNQEIEKRVDEVRVEVTEVTIQGDKLHVDAVFRVRVNGKTEQDRKVIVMDIHNGSVKVRFIHQP”, the protease stability score rises from 0.464 to 0.94.

First: DEETDEKVAKTLMRIMRTGDPKQYADQADEEVRVVVGDQTYTGRESVSEAFEEWTERVDHLEIKDIRVHGEKVNIDAVVDINGHQRKIEFSMTLHNGRIKELVYTDG
Second: DEETEDKARRFVEAFHTGDPKNINRLMDKDARMKYGDTTVHGRHQIDKWIKELKDEIRIELDRVEIRADNGRVTAELDMVFDVNGKPVKHTLVFIFQFHNGRMHEVKIRIDEDVLRKLKR
The protease stability score of the first is lower: -0.598 for the first, 0.746 for the second.

First: DEETHANEFLKTREKALTSNDETELRRLVPPDVRFQVGDKQIHGREEWARKLKDDRTRVDHVTVRVVSITVRPNHIKVNLQEEVVVNGTRSRDRYEAHIVNENGHMQMHSFRQQ
Second: DEETIKHLVKVLEDGDKKRFQKLADPNVRMRVGDKQVHGREKAATLWQHFMDSVDHFFIDHVHIDGEKAHIRADLVVNGQRDTVSIDIKVHNGRIKDVVLRFRDPDYKRKVEKVLG
The protease stability score of the first is lower: -0.396 for the first, 1.56 for the second.

Going from “DEETIRHEARKFQEDMKDGNHDEAVKYAPPNVKIQIGDKTFHGREQMKRFFKELRDEIDHVDLEHVTFHNGRLRVEVRFKINGQDFQVVFYFNYHNGQIENFKVQYRNEEEQQKVEG” to “DEETKAHKWAEKFQRALKDGDPKKMENLMDKNVKAQYGDKTIHGDEEANSWVRRMKHQVDHVSATITRVEADNGKVIVRMTVVVDHNGREQRYEVNLEAKDHNGHIHLTRLKVG”, the protease stability score rises from 0.182 to 0.262.

Going from “DEETKAREFIKKVQNVMRTNNPEDFVKQFDPNARMVVGDKSYHGRDDVRKWAQDLFRRADHVSMSVKRLSVHNGRFHMQADLEVHVNGHREEVKVVMNAKDENGQILIKHARFE” to “DEETKARHQIKHMNKLAQTGQLHEVAKQADPNAEFRIGDKTLRGRDNFVRQVKETADTVDHFDVQVRRVHVKGDKAKANIDLRFDVNGKQERRTLRFSAVMDNGEVVVRFMQIN”, the protease stability score falls from 1.77 to -0.03.

Going from “DEETKDWVDRFFQALHKNNEEELEQLMDPNAHINIGDKVWHGREEFRREHERQAKHWRFTQDITRIDVKGNKARLRVRFRMNYDGKPKDSKARIEIIIHNGKLKEYRQKDDG” to “DEETLHDVLRHLKHGDPDTIDRMADENAKAVIGNQEIHGREEISKIAKDLERKVDHQEVHKVEIDGDKATVTYRQNVNGRTVYMYVIVQNHDGHIKYVVIKARDEDEMRKWEENLS”, the protease stability score rises from 0.351 to 0.742.

First: DEETLRQANRKIQEFLSTNNFDELAKQMDKDVQIRIGDKEVHGRKDAQKMLTDIKDDADHASVHHVDVRGDKAKVRFEVNHNGSVKDVTVTITFHNGRIKRAKWHDT
Second: DEETNKKFASELVHVLRTGDDERLKSMADENATLEVGDKTFHGREEMRKAAEEWQKEIDDLKIESLHVNGDKVVIHFVFTVNGRTDRQIMHLHFDNGKIKSAKMHSG
The protease stability score of the first is lower: 0.089 for the first, 0.96 for the second.

Going from “DEETNQELLERLIDLISHGDEDEFNRQADEEAKAQYGDTRYHGREEVVKAIKTLADRVDHWHIESYHVHGNEMVIDMRWTVNGRTRRANIVMEAENGRIKYVQMDDQ” to “DEETQFKKLMETMKEQNKRGDPRKHEEYVDPNAKVRVGDQDLHGREDVRRVLQEWAERADHVDLKVESMSVHNGKQTAIMVIVLRYNGRNETRRVQVVFDKSNGTVRLVNLRNS”, the protease stability score rises from 0.765 to 0.856.

First: DEETQNTRMEEFFKALKTGDEDRAVELADENVKIEIGDRSVSGREVVRHYVQDFQRRVDHNEIKSMRVHNGRAEVTMVVNHNGTTDTRVVHLEAENGRVRRISVDHP
Second: DEETRKRVETLLEALETGNPEEISKQIDPNATVVVGDKTLHGREDIRDWVRRQHEKIRVEYKHVQIRIHNGRAHVTFEAVVEVNGKPKTVRAQMVFTVSNGKFQHIELHLDEEWKKMEKG
The protease stability score of the first is lower: 0.448 for the first, 1.38 for the second.

First: DEETTDILNELLRAYQNNDSKRIVELADPNASANIGDKQYHGMEDAARTQVKRMRQIHVEIKHVSSDNQGEKIELEMRFVDNHNGKPEQSTRNMTVVMKNGKVDKFTIRDDG
Second: DEEVADNFRKLLHNLEQGDKRRVKEMVDENAHIVVGDKVYHGWETAAQDLVRLMHEIHFTITSVHVEVSNGRVRLKVHMKINVNGKPFRMVFTQEIEAENGTVKYINVQFDPEVLRRIES
The protease stability score of the first is lower: 0.085 for the first, 0.97 for the second.

Going from “DEEVAEQAAKLLEHNDFEKLVDMVDPNVDVEYGDKTVSGRNRVKRVMEKWTRRYDHYEIHTYSISNGRLSADVRAVVNGREVRYVQTIRVHNGRIQKMKIDVTDEDDERNLRKLES” to “DEEVAKKMMEAWMKALQNGNDEQMKKLYDPTVRWEDGNTEKQGLEVVVKLVQTVKKKGIEFQVRKAKVKGNQVEVHYDMKVGDDTVTFTVQFRAQGGRIQEVRVEISEEARKAVKKG”, the protease stability score rises from -0.161 to 1.22.

First: DEEVAKKMMETWQKVVQKGNDKDARELYKPNGEWVDGDEKHQGVDYVVKALQRVKKYGAEFQVRKAKVEGDTATMVYDLRIGDKTVTFVVQMQADGGRVERVQVKMNEEAKKAVTHG
Second: DEEVAKRMAETWVKAVEKGDTDQVQKVYKPNVEWVAGDEKHQGVEVVKKMMQKVKKLGVEFQLRKRKVEGGTVEFHYDMKNGNDTVTFTVRIDAEGGRVDRVEVEFDEKAQKVVKKG
The protease stability score of the first is higher: 0.786 for the first, 0.183 for the second.

From the NTF2 design screens of Basanta et al. (2020)
